Key:
[1] = system: corneal nerves of thy1-YFP mice; experiment: Corneal micropocket assay (VEGF-B releasing pellet); assay type: in vivo, mouse
Method: A sucralfate/hydron pellet impregnated with VEGF-B (100 ng/pellet) or vehicle was implanted into a corneal micropocket in anesthetized thy1-YFP mice subjected to a partial lamellar incision parallel to the limbus. Rogers, M. S. et al., The mouse cornea micropocket angiogenesis assay, Nature protocols 2, 2545-2550 (2007). Mice were allowed to recover for a day, after which a subset received a corneal debridement that removed a circular 2-mm region of central epithelium and the underlying sub-basal nerves. The corneas were harvested 3 days later, fixed in 4% paraformaldehyde (PFA) for 30 minutes, mounted in Vectashield medium (Vector Labs H1000) as whole mounts, and nerves imaged using the AxioObserver system as described above.
Harvested corneas from thy1-YFP mice were fixed in 4% PFA for 1 hr and then stained with 4,6-diamidino-2-phenylindole (DAPI) to label nuclei before mounting. The YFP fluorescent nerves were imaged with a fluorescence microscope at the site of pellet implantation and at a site 180 degrees opposite to the pellet. Images were analyzed using Neurolucida. […] wild type and Vegf-b^−/− mouse corneas were flat mounted and fixed as described. Pan, Z., Fukuoka et al., FASEB J. 27, 2756-2767 (2013). Samples were stained with rabbit anti-β3 tubulin antibody (Abcam 18207) overnight at 4° C., followed by alexaFluor568-conjugated goat anti-rabbit IgG (Life Technologies A11011) at room temperature for 1 hr and counter-stained with DAPI.

[2] = system: corneal sensation of C57BL/6 and Vegf-b−/− mice; experiment: Corneal nerve sensation testing (von Frey Hairs); assay type: in vivo, mouse
Method: The degree of recovered nerve sensation in the injured cornea was evaluated using calibrated von Frey Hairs (North Coast Medicals). In this method the center of the cornea of un-anesthetized mouse was touched with thin filaments of ascending stiffness (0.008 to 1.4 g) until the hairs buckled and a blink response was elicited. C57BL/6 wild type and Vegf-b^−/− mice subjected to corneal epithelial debridement and receiving subconjuntival injection of VEGF-B, as well as their respective controls, were evaluated to determine the minimal force (g) needed for a blink response. Eight mice were tested in each group in three individual experiments.

B1: recombinant mouse VEGF-B^186 (protein, listed as Homo sapiens)
chain: MSPLLRRLLLAALLQLAPAQAPVSQPDAPGHQRKVVSWIDVYTRATCQPREVVVPLTVELMGTVAKQLVPSCVTVQRCGGCCPDDGLECVPTGQHQVRMQILMIRYPSSQLGEMSLEEHSQCECRPKKKDSAVKPDRAATPHHRPQPRSVPGWDSAPGAPSPADITHPTPAPGPSAHAAPSTTSALTPGPAAAAADAAASSVAKGGA
notes: vascular endothelial growth factor B; recombinant mouse VEGF-B186 (R&D 767-VE-010)
- innervation at sites of injury ([1]; 100 ng/pellet plus superficial corneal debridement, versus vehicle, 3 days): significantly increased innervation throughout sites of injury
- corneal nerve density or patterning ([1]; 100 ng/pellet, absence of injury, 3 days): no alteration of corneal nerve density or patterning
- nerve density at the site of pellet implantation ([1]; 100 ng/pellet, limited (focal) injury, versus vehicle): significant increased nerve density
- corneal sensation compared with untreated Vegf-b−/− mice ([2]; Vegf-b−/− mice, 2 weeks post-injury (FIG. 4F)): significantly improved sensation
- functional recovery of corneal sensation ([2]; wild type and Vegf-b−/− mice, 7 days of treatment (FIG. 4E)): began to improve
- corneal sensation ([2]; wild-type mice, 2 weeks post-injury (FIG. 4F)): completely restored
